Key:
[1] = molecular target: His-tagged ectodomain of human IL-2Rα (human) (UniProt P01589); assay: BLI; His-tagged IL-2Rα immobilised by amine coupling on AR2G biosensors; Octet RED96, 25 °C, D-PBS with 0.2% BSA and 0.05% Tween 20; two-fold dilutions (1.5-100 nM) of IL-2 and L72-FSY; dissociation 300 s; global 1:1 fit
[2] = molecular target: extracellular domain of IL-2Rβ (UniProt P14784); assay: BLI; biosensors bearing the extracellular domain of IL-2Rβ; samples in a series of 3-fold dilutions
[3] = molecular target: dimeric IL-2 receptor (Homo sapiens) (UniProt P14784); conditions: cited from earlier work
IL-2Rα (Homo sapiens) = IL-2Rα (Homo sapiens) (UniProt P01589); conditions: cited from earlier work
IL-2Rα (Homo sapiens), sequence (P01589 22-240): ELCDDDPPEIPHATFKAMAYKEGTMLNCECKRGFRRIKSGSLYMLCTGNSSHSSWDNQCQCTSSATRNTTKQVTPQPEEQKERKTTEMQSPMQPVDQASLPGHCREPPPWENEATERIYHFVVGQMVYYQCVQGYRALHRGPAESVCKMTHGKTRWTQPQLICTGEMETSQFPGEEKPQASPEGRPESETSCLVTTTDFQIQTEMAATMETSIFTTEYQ

L72-FSY-IL-2 = L72-FSY-IL-2 (human, UniProt P60568 21-153, L72-FSY, fluorosulfate-L-tyrosine (FSY) at 72); assay: BLI

L72-FSY-IL-2 (human IL-2 with fluorosulfate-L-tyrosine at position 72) (from UniProt P60568 21-153) (ligand)
Kd [1]: 10.3 nM

N-terminally PEGylated L72-FSY-IL-2 (from UniProt P60568 21-153) (ligand)
Kd [1]: 45.1 nM | Kd [2]: 743 nM

IL-2 (from UniProt P60568)
Kd [3]: 1 nM | Kd (IL-2Rα (Homo sapiens)): 10 nM

B1: extracellular domain of the β subunit of IL-2R (receptor)
chain: AVNGTSQFTCFYNSRANISCVWSQDGALQDTSCQVHAWPDRRRWNQTCELLPVSQASWACNLILGAPDSQKLTTVDIVTLRVLCREGVRWRVMAIQDFKPFENLRLMAPISLQVVHVETHRCNISWEISQASHYFERHLEFEARTLSPGHTWEEAPLLTLKQKQEWICLETLTPDTQYEFQVRVKPLQGEFTTWSPWSQPLAFRTKPAALGKDT
Kd (L72-FSY-IL-2): 70 nM
